Results on four molecules are retold here after patent US12497460B2, “Anti-MSR1 antibodies and methods of use thereof” (REGENERON PHARMACEUTICALS, INC., priority 2018, dated 2025).

As usually defined, the Kd is the constant that tells how readily two partners part at equilibrium. What is called t½ is how long it takes for the measured level to halve.

Assay [1] concerns the target HMM-mfMSR1 (monkey MSR1 extracellular domain). Nature of the assay: Biacore surface plasmon resonance binding kinetics of anti-MSR1 mAbs, antibody-capture format. The note with it: analyte HMM-mfMSR1, NB = no binding observed; for kd: * = no dissociation observed, kd manually fixed at 1.00E−05; for ka: antibody-capture format; for Kd: calculated from kinetic rates; for t½: dissociative half-life. How it is done:
(§1) Binding affinities and kinetic constants of human anti-MSR1 antibodies for different MSR1 reagents were determined by real-time surface plasmon resonance (Biacore 4000). All binding studies were performed in 10 mM HEPES, 150 mM NaCl, 3 mM EDTA, and 0.05% v/v Surfactant Tween-20, pH 7.4 (HBS-ET) running buffer at 25° C. and 37° C.
(§2) The association rate (ka) and dissociation rate (kd) were determined by fitting the real-time binding sensorgrams to a 1:1 binding model with mass transport limitation using Scrubber 2.0c curve-fitting software. Binding dissociation equilibrium constant (KD) and dissociative half-life (t½) were calculated from the kinetic rates as: […]

Assay [2] addresses T1, His9-hMSR1 (human MSR1 extracellular domain) (Homo sapiens, UniProt P21757).
T1 construct: human MSR1 extracellular domain expressed with a N-terminal nonahistidine tag; His9 (nonahistidine) (N); purchased R&D Systems 2708-MS
T1 sequence (P21757 77-451 limits assumed): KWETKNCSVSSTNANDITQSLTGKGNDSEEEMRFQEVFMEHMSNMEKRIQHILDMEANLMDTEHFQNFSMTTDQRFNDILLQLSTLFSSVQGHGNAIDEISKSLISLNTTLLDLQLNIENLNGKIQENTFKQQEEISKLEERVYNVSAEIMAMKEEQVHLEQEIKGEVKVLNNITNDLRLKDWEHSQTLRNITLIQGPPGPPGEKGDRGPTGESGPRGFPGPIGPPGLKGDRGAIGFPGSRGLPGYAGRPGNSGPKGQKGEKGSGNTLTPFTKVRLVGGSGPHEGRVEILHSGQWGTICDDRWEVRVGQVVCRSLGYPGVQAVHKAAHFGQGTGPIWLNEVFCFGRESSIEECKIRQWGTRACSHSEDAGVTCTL
The assay is described as above. The note with it: analyte His9-hMSR1, NB = no binding observed; for kd: * = no dissociation observed, kd manually fixed at 1.00E−05; for ka: antibody-capture format; for Kd: calculated from kinetic rates; for t½: dissociative half-life. How it is done: as §1, §2

The target in assay [3] is T2, PMA-treated THP-1 cells (endogenously expressed human MSR1) (Homo sapiens, UniProt P21757).
T2 construct: endogenous in cells; host or cells: THP-1 cells differentiated with PMA
T2 sequence (P21757 1-451): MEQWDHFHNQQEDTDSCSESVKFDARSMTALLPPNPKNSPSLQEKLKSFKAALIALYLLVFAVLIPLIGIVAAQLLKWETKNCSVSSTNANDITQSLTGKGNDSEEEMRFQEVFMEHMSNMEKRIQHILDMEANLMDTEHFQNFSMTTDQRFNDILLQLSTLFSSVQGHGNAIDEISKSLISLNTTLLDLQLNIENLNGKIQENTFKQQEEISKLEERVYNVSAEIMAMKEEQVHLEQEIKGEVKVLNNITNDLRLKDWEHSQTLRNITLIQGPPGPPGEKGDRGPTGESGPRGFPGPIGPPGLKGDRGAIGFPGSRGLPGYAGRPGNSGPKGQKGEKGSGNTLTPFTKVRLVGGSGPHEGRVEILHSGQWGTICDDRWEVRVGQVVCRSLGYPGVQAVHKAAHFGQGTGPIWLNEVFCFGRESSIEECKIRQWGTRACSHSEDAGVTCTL
Nature of the assay: Electrochemiluminescence antibody binding assay on MSR1-expressing cells. In kind it is cell-based.

Assay [4] concerns the target T3, MSR1 on differentiated THP-1 cells (Homo sapiens, UniProt P21757).
T3 construct: endogenous in cells; host or cells: THP-1 cells differentiated with PMA
T3 sequence (P21757 1-451): T2 sequence (P21757 1-451)
Kind of assay: Binding and internalization of cell-surface expressed MSR1 in differentiated THP-1 cells. In kind it is cell-based. Particulars: 10 μg/mL antibody; for Total Binding at 37° C. / Total Internalized RFU: 37° C. The procedure:
Exemplary anti-MSR1 antibodies were assessed for their ability to bind and internalize MSR1 on MSR1-expressing cells.
The THP-1 cells were allowed to differentiate for 4 days at 37° C. in 5% CO2. […] The remaining two plates were incubated at 37° C. for 1 hour followed by fixation and staining for 20 minutes using a solution of 4% PFA+5 μM DRAQ5 diluted in PBS (internalization plates). After fixation, all plates were washed once with PBS. […] The remaining plates were incubated with PBS only. Confocal images were acquired on the Opera Phenix (Perkin Elmer) at 40× magnification. […] The total binding at 4° C. (RFU values of 4° C. unquenched wells), total binding at 37° C. (RFU values of 37° C. unquenched wells), the total internalized RFU, and % Internalization were determined for each antibody as shown in Table 14.
For all calculations, background fluorescence from unstained wells was subtracted from every well. Total internalized RFU was calculated as follows: Total RFU of 37° C. unquenched samples−Surface RFU at 37° C. Surface RFU is defined as unquenched RFU at 37° C.−quenched RFU at 37° C.)/QE. QE (quenching efficiency) is defined as: 1−(Total RFU of 4° C. quenched sample/Total RFU of 4° C. unquenched sample). The % Internalization was determined from the following formula: (Total internalized RFU at 37° C./Total RFU at 37° C.)*100.

Chain of HMM-mfMSR1 (monkey MSR1 extracellular domain) (as listed by the source): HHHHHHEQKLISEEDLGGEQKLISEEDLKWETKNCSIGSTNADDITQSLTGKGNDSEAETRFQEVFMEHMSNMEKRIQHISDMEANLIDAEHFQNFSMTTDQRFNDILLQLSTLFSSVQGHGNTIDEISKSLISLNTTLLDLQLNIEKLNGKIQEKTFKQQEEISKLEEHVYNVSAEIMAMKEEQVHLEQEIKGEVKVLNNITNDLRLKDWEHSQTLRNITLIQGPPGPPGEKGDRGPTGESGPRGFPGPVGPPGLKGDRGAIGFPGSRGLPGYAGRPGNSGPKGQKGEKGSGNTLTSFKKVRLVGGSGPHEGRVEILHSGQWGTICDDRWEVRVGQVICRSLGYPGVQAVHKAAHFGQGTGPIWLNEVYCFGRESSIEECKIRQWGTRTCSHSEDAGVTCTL

B1: H1H21231N-N297Q: modified version of "21231N (H1H21231N-N297Q) anti-MSR1 antibodies" with "a N297Q single point mutation" (antibody, V domains shown)
VH: EVQLVESGGGLVQPGGSLRLSCAASGFTFSDHYMDWVRQAPGKGLEWVGRTRNKANSHTTEYTASVTGRFTISRDDSRNSLYLQMNSLKTEDTAVYYCVRAGIIGTLFDYWGQGTLVTVSS
VL: DIQMTQFPSSLSASVGDRVTITCRASQSISSFLNWFQQKPGKAPKFLIYAASSLQSGVPSRFSGSGSGTDFTLTISSLQPEDFATYYCQQSYSSPPITFGQGTRLEIKR
Turning to B1, the kd is 9.03e-05 s⁻¹ in assay [1] (25° C.), 0.000109 s⁻¹ in assay [1] (37° C.), 5.88e-05 s⁻¹ in assay [2] (25° C.) and 0.000115 s⁻¹ in assay [2] (37° C.). The ka in assay [1] (25° C.) is 240000 M⁻¹ s⁻¹; in assay [1] (37° C.), 587000 M⁻¹ s⁻¹; in assay [2] (25° C.), 399000 M⁻¹ s⁻¹; in assay [2] (37° C.), 534000 M⁻¹ s⁻¹. For the same molecule, the Kd in assay [1] (25° C.) was 0.376 nM; in assay [1] (37° C.) it was 0.186 nM; in assay [2] (25° C.), 0.147 nM; in assay [2] (37° C.) it was 0.215 nM. Besides, the t½ was found to be 2.13 h in assay [1] (25° C.), 1.77 h in assay [1] (37° C.), 3.27 h in assay [2] (25° C.) and 1.68 h in assay [2] (37° C.).

B2: H1H21231N: "anti-MSR1 antibodies ... (21227N, 21231N, 21234N) were produced with the original human Fcγ portion"; "H1H" = human IgG1 Fc (antibody, V domains shown)
VH: B1 VH
VL: B1 VL
modifications: human IgG1 Fc
notes: "anti-MSR1 antibodies ; (21227N, 21231N, 21234N) were produced with the original human Fcγ portion"; "H1H" = human IgG1 Fc
Consider B2, for which, in assay [1] (25° C.), the kd is 6.39e-05 s⁻¹, the ka is 274000 M⁻¹ s⁻¹, the Kd was 0.233 nM and the t½ is 3.02 h. Further, in assay [1] (37° C.), the kd stood at 7.82e-05 s⁻¹, the ka came to 712000 M⁻¹ s⁻¹, the Kd was 0.11 nM and the t½ came to 2.47 h. Further, in assay [2] (25° C.), the kd was 1.00E−05* s^−1, the ka was determined as 477000 M⁻¹ s⁻¹, the Kd was 0.021 nM and the t½ is 19.25 h. In assay [2] (37° C.), the kd is 9.09e-05 s⁻¹, the ka stood at 702000 M⁻¹ s⁻¹, the dissociation constant Kd was 0.13 nM and the t½ was 2.12 h. For the same molecule, the “Ratio of 11 nM Antibody Binding Signal (RLU) to isotype control, PMA-treated THP-1” value in assay [3] was found to be 42.

B3: H1H27747P-N297Q (antibody, V domains shown)
VH: QVQLVESGGAVVQPGRSLRLSCAASGFTFSYYGMHWVRQAPGKGLEWVAVISYDGSKKYYADSVKGRFTISRDNSKNTLYLQMNSLRAEDTAVYYCAKDLTVDFYYGMDVWGQGTTVTVSS
VL: DIQMTQSPSSVSASVGDRVTITCRASQGISSWLAWYQQKPGKAPKLLIYATSSLQSGAPSRFSGSGSGTDFTLTISSLQPEDFATYFCQQANSFPYTFGQGTKLEIKR
Turning to B3, in assay [1] (25° C.), the kd came out at 0.000874 s⁻¹ and the ka came to 231000 M⁻¹ s⁻¹. In assay [1] (37° C.), this molecule displayed a kd of 0.00228 s⁻¹ and a ka of 657000 M⁻¹ s⁻¹. In assay [2] (25° C.), this molecule gave a kd of 0.000652 s⁻¹ and a ka of 243000 M⁻¹ s⁻¹. Further, in assay [2] (37° C.), the kd turned out to be 0.00276 s⁻¹ and the ka was 513000 M⁻¹ s⁻¹. In addition, in assay [4], the “% Internalization” value is 58.2%, the “Total Binding at 4° C.” value amounted to 2518361, the “Total Binding at 37° C.” value was found to be 5917858 and the “Total Internalized RFU” value stood at 3444330 RFU.

B4: H1H27739P-N297Q: anti-MSR1 antibody "made with an N297Q single point mutation in human Fcγ portion" (antibody, V domains shown)
VH: EVQLVESGGGLVQPGGSLRLSCTASGFTFSSYAMSWVRQAPGKGLEWVSAISGTGSSTYFTDSVKGRFAISRDNSKNTLYLQMNSLRAEDTAVYYCAKDGEWLSTVTLFDYWGQGTLVTVSS
VL: EIVMTQSPATLSVSPGERATLSCRASQSVSSNLAWYQQKPGQAPRLLIYGASTRATGIPARFSGSGSGTDFTLTISSLQSEDFALYYCQQYFIWPPHPTFGPGTKVDIKR
With B4, in assay [1] (25° C.), the kd worked out at 0.000144 s⁻¹ and the ka was 352000 M⁻¹ s⁻¹. In assay [1] (37° C.), the kd was found to be 0.000842 s⁻¹ and the ka stood at 2.25e+06 M⁻¹ s⁻¹. In assay [2] (25° C.), this molecule had a kd of 0.00103 s⁻¹ and a ka of 375000 M⁻¹ s⁻¹. In assay [2] (37° C.), this molecule yielded a kd of 0.00288 s⁻¹ and a ka of 776000 M⁻¹ s⁻¹. Moreover, in assay [3], the “Ratio of 11 nM Antibody Binding Signal (RLU) to isotype control, PMA-treated THP-1” value was 9. In assay [4], the “% Internalization” value was found to be 71.6%, the “Total Binding at 4° C.” value was 3702857, the “Total Binding at 37° C.” value is given as 5608380 and the “Total Internalized RFU” value was 4016378 RFU.
